According to US20200216494A1 (ROYAL MELBOURNE INSTITUTE OF TECHNOLOGY, published 2020):

Molecular target: T1, NOX2 (catalytic subunit of NOX2 NADPH oxidase) (mouse, UniProt Q61093 2-570)
T1 construct: whole, on cells; Endogenous protein in mouse alveolar macrophages, BMDMs and RAW264.7 cells; also called gp91phox; CYBB
T1 sequence (looked up): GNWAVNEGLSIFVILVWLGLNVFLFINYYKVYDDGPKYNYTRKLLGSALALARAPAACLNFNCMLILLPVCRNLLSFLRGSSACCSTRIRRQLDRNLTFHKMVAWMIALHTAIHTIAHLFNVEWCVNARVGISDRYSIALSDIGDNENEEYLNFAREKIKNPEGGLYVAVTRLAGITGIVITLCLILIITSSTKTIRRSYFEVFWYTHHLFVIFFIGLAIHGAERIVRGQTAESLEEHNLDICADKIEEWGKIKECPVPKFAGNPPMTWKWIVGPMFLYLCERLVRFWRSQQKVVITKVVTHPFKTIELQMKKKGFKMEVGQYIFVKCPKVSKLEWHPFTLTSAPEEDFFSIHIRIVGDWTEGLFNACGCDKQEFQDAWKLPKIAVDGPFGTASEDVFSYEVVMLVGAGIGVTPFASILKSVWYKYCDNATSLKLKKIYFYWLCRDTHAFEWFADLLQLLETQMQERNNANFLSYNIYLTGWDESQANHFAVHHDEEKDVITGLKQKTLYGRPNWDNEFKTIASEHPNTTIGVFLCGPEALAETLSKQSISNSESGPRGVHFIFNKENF
Assay: confocal immunofluorescence of NOX2 and p47phox association (NOX2 oxidase assembly) in HKx31-infected mouse macrophages

B1: p47phox regulatory subunit of NOX2 oxidase (other, mouse, UniProt Q09014 1-390, looked up)
chain: MGDTFIRHIALLGFEKRFIPSQHYVYMFLVKWQDLSEKVVYRKFTEIYEFHKMLKEMFPIEAGEIHTENRVIPHLPAPRWFDGQRAAESRQGTLTEYFNGLMGLPVKISRCPHLLDFFKVRPDDLKLPTDSQAKKPETYLVPKDGKNNVADITGPIILQTYRAIADYEKSSGTEMTVATGDVVDVVEKSESGWWFCQMKTKRGWVPASYLEPLDSPDEAEDPDPNYAGEPYVTIKAYAAVEEDEMSLSEGEAIEVIHKLLDGWWVVRKGDITGYFPSMYLQKAGEEITQAQRQIRGRGAPPRRSTIRNAQSIHQRSRKRLSQDTYRRNSVRFLQQRRRPGRPGPLSTDGTKDNPSTPRVKPQPAVPPRPSSDLILHRCTESTKRKLTSAV
notes: whole, on cells; Cytosolic subunit, endogenous in the cells
binding result: binds
